T1: soluble recombinant extracellular domain of RAET1E, 6-Histidine N-terminal fusion (human, UniProt Q8TD07 31-225)
T1 construct: extracellular domain
T1 sequence: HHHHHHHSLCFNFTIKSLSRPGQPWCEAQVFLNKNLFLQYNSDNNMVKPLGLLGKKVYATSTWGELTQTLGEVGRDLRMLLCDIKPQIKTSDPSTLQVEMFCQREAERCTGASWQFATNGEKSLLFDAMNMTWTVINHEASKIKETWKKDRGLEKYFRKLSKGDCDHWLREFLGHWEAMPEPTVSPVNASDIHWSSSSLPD

T2: soluble recombinant extracellular domain of ULBP3, 6-Histidine N-terminal fusion (human, UniProt Q9BZM4 30-217, limits assumed)
T2 construct: extracellular domain
T2 sequence: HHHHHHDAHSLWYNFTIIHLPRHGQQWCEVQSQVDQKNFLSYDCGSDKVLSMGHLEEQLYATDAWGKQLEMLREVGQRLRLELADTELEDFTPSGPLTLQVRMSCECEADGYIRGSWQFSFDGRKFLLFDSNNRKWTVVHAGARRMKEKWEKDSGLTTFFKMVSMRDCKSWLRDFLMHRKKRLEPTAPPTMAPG

T3: soluble recombinant extracellular domain of ULBP2, 6-Histidine N-terminal fusion (human, UniProt Q9BZM5 26-217, limits assumed)
T3 construct: extracellular domain
T3 sequence: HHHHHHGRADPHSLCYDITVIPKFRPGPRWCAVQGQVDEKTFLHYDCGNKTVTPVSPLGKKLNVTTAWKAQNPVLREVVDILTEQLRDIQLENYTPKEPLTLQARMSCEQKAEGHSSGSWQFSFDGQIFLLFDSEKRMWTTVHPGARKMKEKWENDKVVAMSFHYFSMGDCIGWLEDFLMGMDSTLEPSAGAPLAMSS

T4: soluble recombinant extracellular domain of ULBP1, 6-Histidine N-terminal fusion (human, UniProt Q9BZM6 26-216, limits assumed)
T4 construct: extracellular domain
T4 sequence: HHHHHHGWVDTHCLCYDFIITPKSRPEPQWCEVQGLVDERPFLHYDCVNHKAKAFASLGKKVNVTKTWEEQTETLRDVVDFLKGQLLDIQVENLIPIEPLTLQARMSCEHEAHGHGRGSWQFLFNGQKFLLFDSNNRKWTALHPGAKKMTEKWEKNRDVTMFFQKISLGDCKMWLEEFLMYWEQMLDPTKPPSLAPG

B1: soluble recombinant extracellular domain of RAET1G, 6-Histidine N-terminal fusion (ligand, human)
chain: HHHHHHGLADPHSLCYDITVIPKFRPGPRWCAVQGQVDEKTFLHYDCGSKTVTPVSPLGKKLNVTTAWKAQNPVLREVVDILTEQLLDIQLENYIPKEPLTLQARMSCEQKAEGHGSGSWQLSFDGQIFLLFDSENRMWTTVHPGARKMKEKWENDKDMTMSFHYISMGDCTGWLEDFLMGMDSTLEPSAGAPPTMSSGTAQPR
notes: extracellular domain; also called 6-His tagged recombinant RAET1G
B2: NKG2D-Fc fusion protein (Fc fusion, human, UniProt P26718 73-216, looked up)
chain: IWSAVFLNSLFNQEVQIPLTESYCGPCPKNWICYKNNCYQFFDESKNWYESQASCMSQNASLLKVYSKEDQDLLKLVKSYHWMGLVHIPTNGSWQWEDGSILSPNLLTIIEMQKGDCALYASSFKGYIENCSTPNTYICMQRTV
notes: Produced in 293T cells, purified on Protein A. 'The fusion was C-terminal to human IgG1 hinge-CH2-CH3 domains'; also called recombinant soluble Fc fusion protein of NKG2D; not shown: human IgG1 hinge-CH2-CH3 domains, N-terminal to NKG2D (in pcDNA3.0)
B3: UL16 Fc fusion (Fc fusion)
chain: VDLGSKSSNSTCRLNVTELASIHPGETWTLHGMCISICYYENVTEDEIIGVAFTWQHNESVVDLWLYQNDTVIRNFSDITTNILQDGLKMRTVPVTKLYTSRMVTNLTVGRYDCLRCENGTTKIIERLYVRLGSLYPRPPGSGLAKHPSVSADEELSA
notes: not shown: human IgG1 CH2-CH3, C-terminal to UL16 (vector SignalpIgplus)

What was measured:
[1] = molecular target: B3; assay: SPR (BIACore 2000); kon on UL16-Fc against kon on NKG2D-Fc
[2] = molecular target: B2; assay: SPR (BIACore 2000); RAET1G against ULBP2 on NKG2D-Fc
Protocol: (§1) SPR was carried out on a BIACore2000 machine. Running buffer, sensor chips and surface coupling reagents were from BIACore. Anti Human IgG (Dako) was coupled to a CM5 surface using NHS/EDC chemistry. […] Surface regeneration was using 5 μl of 10 mM HCl. […] Kinetic analysis was performed using BIAEvaluation 3.1 software.

[3] = molecular target: T1, soluble recombinant extracellular …; assay: SPR (BIACore 2000), NKG2D-Fc captured on anti-human IgG, RAET1E as analyte; separate off-rate fit
Protocol: as §1

[4] = molecular target: B1; assay: SPR (BIACore 2000), NKG2D-Fc captured on anti-human IgG, RAET1G as analyte; joint global fit
Protocol: as §1

[5] = molecular target: T1, soluble recombinant extracellular …; assay: SPR (BIACore 2000), NKG2D-Fc captured on anti-human IgG, RAET1E as analyte; joint global fit
Protocol: as §1

[6] = molecular target: T1, soluble recombinant extracellular …; assay: SPR (BIACore 2000), NKG2D-Fc captured on anti-human IgG, RAET1E as analyte; derived from joint fit
Protocol: as §1

[7] = molecular target: T2, soluble recombinant extracellular …; assay: SPR (BIACore 2000), NKG2D-Fc captured on anti-human IgG, ULBP3 as analyte; derived from joint fit
Protocol: as §1

[8] = molecular target: T3, soluble recombinant extracellular …; assay: SPR (BIACore 2000), NKG2D-Fc captured on anti-human IgG, ULBP2 as analyte; joint global fit
Protocol: as §1

[9] = molecular target: T2, soluble recombinant extracellular …; assay: SPR (BIACore 2000), NKG2D-Fc captured on anti-human IgG, ULBP3 as analyte; separate off-rate fit
Protocol: as §1

[10] = molecular target: B1; assay: SPR (BIACore 2000), NKG2D-Fc captured on anti-human IgG, RAET1G as analyte; separate off-rate fit
Protocol: as §1

[11] = molecular target: T4, soluble recombinant extracellular …; assay: SPR (BIACore 2000), NKG2D-Fc captured on anti-human IgG, ULBP1 as analyte; derived from joint fit
Protocol: as §1

[12] = molecular target: T3, soluble recombinant extracellular …; assay: SPR (BIACore 2000), NKG2D-Fc captured on anti-human IgG, ULBP2 as analyte; derived from joint fit
Protocol: as §1

[13] = molecular target: T3, soluble recombinant extracellular …; assay: SPR (BIACore 2000), NKG2D-Fc captured on anti-human IgG, ULBP2 as analyte; separate off-rate fit
Protocol: as §1

[14] = molecular target: T4, soluble recombinant extracellular …; assay: SPR (BIACore 2000), NKG2D-Fc captured on anti-human IgG, ULBP1 as analyte; joint global fit
Protocol: as §1

[15] = molecular target: B1; assay: SPR (BIACore 2000), NKG2D-Fc captured on anti-human IgG, RAET1G as analyte; derived from joint fit
Protocol: as §1

[16] = molecular target: T2, soluble recombinant extracellular …; assay: SPR (BIACore 2000), NKG2D-Fc captured on anti-human IgG, ULBP3 as analyte; joint global fit
Protocol: as §1

[17] = molecular target: T4, soluble recombinant extracellular …; assay: SPR (BIACore 2000), NKG2D-Fc captured on anti-human IgG, ULBP1 as analyte; separate off-rate fit
Protocol: as §1

[18] = molecular target: B1; assay: SPR (BIACore 2000), UL16-Fc captured on anti-human IgG, RAET1G as analyte; joint global fit
[19] = molecular target: T1, soluble recombinant extracellular …; assay: SPR (BIACore 2000), UL16-Fc captured on anti-human IgG, RAET1E as analyte; joint global fit
[20] = molecular target: T4, soluble recombinant extracellular …; assay: SPR (BIACore 2000), UL16-Fc captured on anti-human IgG, ULBP1 as analyte; derived from joint fit
[21] = molecular target: B1; assay: SPR (BIACore 2000), UL16-Fc captured on anti-human IgG, RAET1G as analyte; derived from joint fit
[22] = molecular target: T1, soluble recombinant extracellular …; assay: SPR (BIACore 2000), UL16-Fc captured on anti-human IgG, RAET1E as analyte; derived from joint fit
[23] = molecular target: T4, soluble recombinant extracellular …; assay: SPR (BIACore 2000), UL16-Fc captured on anti-human IgG, ULBP1 as analyte; joint global fit

Binder: B1
- fold faster association rate for UL16 than for NKG2D [1]: 10 fold
- fold difference in affinity against ULBP2 [2]: 20 fold

Binder: B2
- koff [3]: 0.005 s⁻¹
- koff [4]: 0.00374 s⁻¹
- kon [4]: 10500 M⁻¹ s⁻¹
- koff [5]: 0.00292 s⁻¹
- kon [5]: 74900 M⁻¹ s⁻¹
- Kd [6]: 39 nM
- Kd [7]: 2290 nM
- koff [8]: 0.063 s⁻¹
- koff [9]: 0.005 s⁻¹
- koff [10]: 0.003 s⁻¹
- Kd [11]: 1680 nM
- Kd [12]: 7160 nM
- koff [13]: 0.0336 s⁻¹
- koff [14]: 0.0073 s⁻¹
- kon [14]: 4360 M⁻¹ s⁻¹
- Kd [15]: 356 nM
- koff [16]: 0.00537 s⁻¹
- kon [16]: 2350 M⁻¹ s⁻¹
- koff [17]: 0.0069 s⁻¹

Binder: B3
- koff [18]: 0.00871 s⁻¹
- kon [18]: 115000 M⁻¹ s⁻¹
- koff [19]: 0.00595 s⁻¹
- kon [19]: 11800 M⁻¹ s⁻¹
- Kd [20]: 243 nM
- Kd [21]: 75.6 nM
- Kd [22]: 504 nM
- koff [23]: 0.000597 s⁻¹
- kon [23]: 2460 M⁻¹ s⁻¹
